# Results from patent publication US20230220038A1, “BRI2 BRICHOS DOMAIN FOR DELIVERY OF PROTEINS INTO CNS NEURONS” (ALPHABETA AB, priority 2021, published 2023).
# What was measured:
# [1] = system: hippocampal slice preparations; experiment: Aβ42-induced neurotoxicity in hippocampal slice preparations
# Aβ42 = Aβ42 (Homo sapiens, UniProt P05067); experiment: Aβ42 oligomer generation; type: biochemical
# [2] = system: App^NL-G-F and App^NL-F mice; conditions: mouse, in vivo, iv
# Method: After the end of 10-12 weeks of treatment, Bri2 BRICHOS amounts in the CNS were analysed.
# Representative sections (A,D) were double stained with anti-Bri2 BRICHOS antibody (red/pink color) and 82E1 anti-Aβ antibody (green color) counterstained with hematoxylin Mayer (blue color) in rh Bri2 BRICHOS R221E or PBS treated App^NL-G-F and App^NL-F mice. Histograms represents mean intensity of Bri2 BRICHOS in hippocampus (B,E) and cortex (C,F) of App^NL-G-F (B,C) and App^NL-F (E,F) mice. Data are shown as mean±SEM (n=3-4 mice/group, 4 histological sections from each mouse analyzed). Unpaired parametric two-tailed t-test was used to calculate p-values. Scale bars represents 400 μm (upper four panels in A and D) and 100 μm (lower two panels in A and D). * p<0.05, ** p<0.01, *** p<0.001, **** p<0.0001.
# mice = conditions: mouse, in vivo
# mouse primary neurons = experiment: Uptake into primary neurons in culture, fluorescence microscopy; type: cell-based; conditions: low nanomolar concentrations in culture medium, 24-48 h
# Method: The data in FIG. 11A indicate that the fusion protein rh NT-Bri2 BRICHOS is internalized in CNS cells and appears in intracellular vesicles. We studied the intracellular localization in more detail, using primary mouse neurons in culture and the recombinant fusion protein mCherry-Bri2 BRICHOS. Recombinant mCherry-Bri2 BRICHOS was added to the culture medium at low nanomolar concentrations, and after 24-48 h the neurons were immobilized and visualized under a fluorescence microscope.
# Chain of Aβ42 (P05067 672-713 limits assumed): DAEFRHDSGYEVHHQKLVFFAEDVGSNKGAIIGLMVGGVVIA
Substance,effect on Aβ42-induced neurotoxicity [1],effect on Aβ42 oligomer generation (Aβ42),"overall Bri2 BRICHOS staining (mean intensity, hippocampus and cortex) versus PBS [2]",BBB passage (mice),uptake into primary neurons (mouse primary neurons)
Bri2 BRICHOS R221E monomers: rh Bri2 BRICHOS mutated R221E so that the monomer is stabilised (SEQ ID NO: 13),alleviates Aβ42-induced neurotoxicity,selectively reduces Aβ42 oligomer generation,significant increase,passes the BBB in mice and shows a trend towards higher passage than the wildtype protein,
mCherry: control: ca 30 kDa fluorescent protein derived from sea anemones [reference compound],,,,,not taken up to any detectable level
